Assay [1] deals with T1, human CLDN9 protein (human, UniProt O95484 1-217).
T1 sequence (looked up): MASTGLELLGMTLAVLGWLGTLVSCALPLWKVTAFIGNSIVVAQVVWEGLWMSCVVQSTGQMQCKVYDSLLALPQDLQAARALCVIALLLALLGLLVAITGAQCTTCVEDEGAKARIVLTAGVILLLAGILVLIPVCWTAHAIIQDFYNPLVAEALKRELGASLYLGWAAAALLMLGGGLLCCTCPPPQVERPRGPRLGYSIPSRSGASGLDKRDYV
As to the kind of experiment: flow cytometry on cells overexpressing human CLDN9; 10 µg/mL control antibody, Alexa 647 anti-mouse secondary; single point.

In assay [2] the target is T2, human CLDN6 protein (human, UniProt P56747 1-220).
T2 sequence (looked up): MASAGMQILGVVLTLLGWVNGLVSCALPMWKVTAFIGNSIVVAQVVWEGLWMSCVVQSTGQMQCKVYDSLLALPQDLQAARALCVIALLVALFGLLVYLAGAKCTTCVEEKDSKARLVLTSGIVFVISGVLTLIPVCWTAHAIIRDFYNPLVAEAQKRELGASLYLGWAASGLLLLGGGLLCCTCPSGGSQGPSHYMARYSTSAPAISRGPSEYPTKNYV
Kind of assay: flow cytometry on cells overexpressing human CLDN6; 10 µg/mL control antibody, Alexa 647 anti-mouse secondary; single point.

In assay [3] the target is T3, human CLDN4 protein (human, UniProt O14493 1-209).
T3 sequence (looked up): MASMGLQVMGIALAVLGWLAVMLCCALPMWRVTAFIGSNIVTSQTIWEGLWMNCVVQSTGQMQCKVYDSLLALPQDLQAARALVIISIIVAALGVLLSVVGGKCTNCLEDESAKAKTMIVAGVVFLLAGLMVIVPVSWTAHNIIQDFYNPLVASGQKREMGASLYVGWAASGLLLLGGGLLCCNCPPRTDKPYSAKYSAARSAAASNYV
As to the kind of experiment: flow cytometry on cells overexpressing human CLDN4; 10 µg/mL control antibody, Alexa 647 anti-mouse secondary; single point.

Assay [4] has as its target T3, human CLDN4 protein. As to the kind of experiment: flow cytometry on cells overexpressing human CLDN4; Alexa 647 anti-mouse secondary; single point.
Assay [5] concerns the target T1, human CLDN9 protein. Kind of assay: flow cytometry on cells overexpressing human CLDN9; 10 µg/mL purified antibody, Alexa 647 anti-mouse secondary; single point.
In assay [6] the target is T3, human CLDN4 protein. As to the kind of experiment: flow cytometry on cells overexpressing human CLDN4; 10 µg/mL purified antibody, Alexa 647 anti-mouse secondary; single point.
Assay [7] concerns the target T2, human CLDN6 protein. Kind of assay: flow cytometry on cells overexpressing human CLDN6; 10 µg/mL purified antibody, Alexa 647 anti-mouse secondary; single point.
Assay [8] deals with T1, human CLDN9 protein. Kind of assay: cell-based or functional assay.
Assay [9] has as its target T2, human CLDN6 protein. Kind of assay: cell-based or functional assay.
Assay [10] has as its target T3, human CLDN4 protein. As to the kind of experiment: cell-based or functional assay.
Assay [11] concerns the target T1, human CLDN9 protein. Kind of assay: flow cytometry on cells overexpressing human CLDN9; Alexa 647 anti-mouse secondary; single point.
Assay [12] addresses T2, human CLDN6 protein. Kind of assay: cell-based or functional assay. This is another data set of the same source.

As for mIgG2b control (antibody), the MFI is 81 with human CLDN9 protein [1], 84 with human CLDN6 protein [2] and 73 with human CLDN4 protein [3].

B1: SC27.204 mouse monoclonal anti-CLDN antibody (antibody, V domains shown)
VH: EVKVLESGGGLVQPGGSLKLSCAASGFDFSRYWMSWVRQAPGKGLEWIGEINPDSSTINYTPSLKAKFIISRDNAKNTLYLQMSKVRSEDTALYYCTGPAYWGQGTLVTVSA
VL: DIVMTQSQKFMSTSVGDRVSVACKAGQNVGTSVAWYQQKPGHSPKSLIYSASYRYSGVPNRFTGSGSGTDFTLTISNVQSEDLADYFCQQYITYPYTFGGGTKLEII
As to B1, the binding result with human CLDN4 protein [4] is recorded as “no binding (tested: 10 µg/mL)”. Moreover, the MFI was found to be 23000 with human CLDN9 protein [5], 79 with human CLDN4 protein [6] and 106000 with human CLDN6 protein [7]. The “apparent IC50 of killing of HEK-293T cells overexpressing hCLDN9; antibody titrated 0.15 to 1000 nM with anti-mouse IgG Fab-saporin, CellTiter-Glo” value with human CLDN9 protein [8] was determined as 16.9 nM. Further, in the assay with human CLDN6 protein [9], the “apparent IC50 of killing of HEK-293T cells overexpressing hCLDN6; antibody titrated 0.15 to 1000 nM with anti-mouse IgG Fab-saporin, CellTiter-Glo” value stood at 25.2 nM.

B2: SC27.201 mouse monoclonal anti-CLDN antibody (antibody, V domains shown)
VL: DIQMTQSSSSFSVSLGDRVTITCKASEDIYNRLAWYQQKPGNAPRLLISGATSLEAGVPSGFSGSGSGKDYTLSITSLQTEDVATYYCQQYWSTPPTFGGGTKLELK
V domain: EVQLQQSGPELVKPGASVKISCKTSGYTFTENIRHWVKQSRGKSLEWIGTINPNNGETRYNQKFKGKATLTVDKSSSTAYMELRSLTSEDSAVYYCTRGITKSPYGMDYWGQGTSITVSS
As to B2, the MFI in the assay with human CLDN9 protein [5] turned out to be 7100; with human CLDN4 protein [6], 23100; with human CLDN6 protein [7] it was 29900. Moreover, in the assay with human CLDN4 protein [10], the “apparent IC50 of killing of HEK-293T cells overexpressing hCLDN4; antibody titrated 0.15 to 1000 nM with anti-mouse IgG Fab-saporin, CellTiter-Glo” value is 69.7 nM. In addition, the “apparent IC50 of killing of HEK-293T cells overexpressing hCLDN9; antibody titrated 0.15 to 1000 nM with anti-mouse IgG Fab-saporin, CellTiter-Glo” value with human CLDN9 protein [8] stood at 155 nM. The “apparent IC50 of killing of HEK-293T cells overexpressing hCLDN6; antibody titrated 0.15 to 1000 nM with anti-mouse IgG Fab-saporin, CellTiter-Glo” value with human CLDN6 protein [9] was found to be 48.2 nM.

B3: SC27.106 (antibody, V domains shown)
VH: EVQLQQSGPELVKPGASVKISCKTSGYTFTEYTMHWVKQSHGKSLEWIGGINPNNGGTNYNQKFKGKATLTVDKSSSTAYMELRSLTSEDSAVYYCARRLITYYAMDYWGQGTSVTVSS
VL: DIQMTQSSSSFSVSLGDRVTITCKASEDIYNRLAWYQQKPGNAPRLLICGATSLETGVPSRFSGSGSGKDYTLSITSLQTEDVATYYCQQYWSTPLTFGAGTKLELK
notes: also called SC27.106 mouse monoclonal anti-CLDN antibody
Take B3: the MFI was 595 with human CLDN9 protein [5], 1990 with human CLDN4 protein [6] and 55800 with human CLDN6 protein [7].

B4: SC27.104 mouse monoclonal anti-CLDN antibody (antibody, V domains shown)
VH: EVQLQQSGPELVKPGASVKISCKTSGYTFTEYTVHWVKQSHGKSLEWIGGVYPKNGDTTYNQKFRGKATLTVDKSSNTAYMELRSLTSEDSAVYYCTGKDGYDGFAYWGQGTLVTVSA
VL: DIQMTQSSSSFSVSLGDRVTITCKASEDIYNRLAWYQQKPGNAPRLLISGATSLETGVPSRFSGSGSGKDYTLSITSLQTEDVATYYCQQYWSNPPTFGGGTKLEIK
For B4, the figures for the MFI in the assay with human CLDN9 protein [5], with human CLDN4 protein [6] and in the assay with human CLDN6 protein [7] were 7230, 22600 and 39200, respectively. Also, the “apparent IC50 of killing of HEK-293T cells overexpressing hCLDN4; antibody titrated 0.15 to 1000 nM with anti-mouse IgG Fab-saporin, CellTiter-Glo” value with human CLDN4 protein [10] amounted to 969 nM. For the same molecule, in the assay with human CLDN6 protein [9], the “apparent IC50 of killing of HEK-293T cells overexpressing hCLDN6; antibody titrated 0.15 to 1000 nM with anti-mouse IgG Fab-saporin, CellTiter-Glo” value turned out to be 284 nM.

B5: SC27.203 (antibody, V domains shown)
VH: EVQLQQSGPELVKPGASVKISCKTSGYTFTENIIHWVKQSHGKSLEWIGGINPINGGTSYNQKFKGKATLTVDKSSSTAYMELRSLTSEDSAVYYCARGITTSPYAMDYWGQGTSVTVSS
VL: DIQMTQSSSSFSVSLGDRVTITCKASEDIYNRLAWYQQNPGNTPRLLMSGATSLETGVPSRFSGSGSGKDYTLSITSLQIEDVSTYYCQQYWSTPPTFGGGTRLEIK
notes: also called SC27.203 mouse monoclonal anti-CLDN antibody
With B5, the MFI with human CLDN9 protein [5] amounted to 587; in the assay with human CLDN4 protein [6], 2980; with human CLDN6 protein [7], 47400.

B6: SC27.105 mouse monoclonal anti-CLDN antibody (antibody, V domains shown)
VH: EVQLQQSGPELVKPGASVKISCKASGYSFTGYYMNWVKQSPEKSLEWIGEINPSTGSTTYNQKFKAKATLTVDKSSSTAYMQLKSLTSEDSAVYYCARRDYYYGSGFYAMDYWGQGTSVTVSS
VL: DVQMTQSPSSLSASLGERVSLTCQASQSVSNNLNWYQQTPGKAPRLLIYGASKLEDGVSSRFSGTGYGTDFTFTISSLEEEDVATYFCLQHRYLWTFGGGTKLEIK
For the molecule B6, the binding result in the assay with human CLDN4 protein [4] and in the assay with human CLDN9 protein [11] was “no binding (tested: 10 µg/mL)” in each case. Also, the MFI in the assay with human CLDN9 protein [5] was 80; with human CLDN4 protein [6] it was 69; in the assay with human CLDN6 protein [7], 83000. Moreover, the “apparent IC50 of killing of HEK-293T cells overexpressing hCLDN6; antibody titrated 0.15 to 1000 nM with anti-mouse IgG Fab-saporin, CellTiter-Glo” value in the assay with human CLDN6 protein [9] is 235 nM.

B7: SC27.108 mouse monoclonal anti-CLDN antibody (antibody, V domains shown)
VH: QVQMQQSGAELVRPGTSVKVSCKASGYAFTNYLIEWVKQRPGQGLEWIGLINPGSGGTNYNEKFKGKATLTADKSSTTAYMQLSSLTSDDSAVYFCARRSPLGSWIYYAYDGVAYWGQGTLVTVSA
VL: EIVLTQSPALMAASPGEKVTITCSVSSSISSSNLHWYQQKSGTSPKLWIYGTSNLASGVPVRFSGSGSGTSYSLTISNMEAEDAATYYCQQWSSYPHTFGGGTKLEIK
notes: also called SC27.109 (identical)
On to B7, for which, in the assay with human CLDN6 protein [12], the “apparent IC50 of saporin-mediated cell killing” value came out at 100 nM. The binding result with human CLDN4 protein [4] and with human CLDN9 protein [11] was “no binding (tested: 10 µg/mL)” throughout. Moreover, the results for the MFI in the assay with human CLDN9 protein [5], in the assay with human CLDN4 protein [6] and with human CLDN6 protein [7] were 86, 88 and 99700, respectively. In addition, the “apparent IC50 of killing of HEK-293T cells overexpressing hCLDN6; antibody titrated 0.15 to 1000 nM with anti-mouse IgG Fab-saporin, CellTiter-Glo” value in the assay with human CLDN6 protein [9] stood at 102 nM.
